Data set [1] deals with T1, FL-ROS1 (Arabidopsis, UniProt Q9SJQ6 1-1393).
T1 sequence: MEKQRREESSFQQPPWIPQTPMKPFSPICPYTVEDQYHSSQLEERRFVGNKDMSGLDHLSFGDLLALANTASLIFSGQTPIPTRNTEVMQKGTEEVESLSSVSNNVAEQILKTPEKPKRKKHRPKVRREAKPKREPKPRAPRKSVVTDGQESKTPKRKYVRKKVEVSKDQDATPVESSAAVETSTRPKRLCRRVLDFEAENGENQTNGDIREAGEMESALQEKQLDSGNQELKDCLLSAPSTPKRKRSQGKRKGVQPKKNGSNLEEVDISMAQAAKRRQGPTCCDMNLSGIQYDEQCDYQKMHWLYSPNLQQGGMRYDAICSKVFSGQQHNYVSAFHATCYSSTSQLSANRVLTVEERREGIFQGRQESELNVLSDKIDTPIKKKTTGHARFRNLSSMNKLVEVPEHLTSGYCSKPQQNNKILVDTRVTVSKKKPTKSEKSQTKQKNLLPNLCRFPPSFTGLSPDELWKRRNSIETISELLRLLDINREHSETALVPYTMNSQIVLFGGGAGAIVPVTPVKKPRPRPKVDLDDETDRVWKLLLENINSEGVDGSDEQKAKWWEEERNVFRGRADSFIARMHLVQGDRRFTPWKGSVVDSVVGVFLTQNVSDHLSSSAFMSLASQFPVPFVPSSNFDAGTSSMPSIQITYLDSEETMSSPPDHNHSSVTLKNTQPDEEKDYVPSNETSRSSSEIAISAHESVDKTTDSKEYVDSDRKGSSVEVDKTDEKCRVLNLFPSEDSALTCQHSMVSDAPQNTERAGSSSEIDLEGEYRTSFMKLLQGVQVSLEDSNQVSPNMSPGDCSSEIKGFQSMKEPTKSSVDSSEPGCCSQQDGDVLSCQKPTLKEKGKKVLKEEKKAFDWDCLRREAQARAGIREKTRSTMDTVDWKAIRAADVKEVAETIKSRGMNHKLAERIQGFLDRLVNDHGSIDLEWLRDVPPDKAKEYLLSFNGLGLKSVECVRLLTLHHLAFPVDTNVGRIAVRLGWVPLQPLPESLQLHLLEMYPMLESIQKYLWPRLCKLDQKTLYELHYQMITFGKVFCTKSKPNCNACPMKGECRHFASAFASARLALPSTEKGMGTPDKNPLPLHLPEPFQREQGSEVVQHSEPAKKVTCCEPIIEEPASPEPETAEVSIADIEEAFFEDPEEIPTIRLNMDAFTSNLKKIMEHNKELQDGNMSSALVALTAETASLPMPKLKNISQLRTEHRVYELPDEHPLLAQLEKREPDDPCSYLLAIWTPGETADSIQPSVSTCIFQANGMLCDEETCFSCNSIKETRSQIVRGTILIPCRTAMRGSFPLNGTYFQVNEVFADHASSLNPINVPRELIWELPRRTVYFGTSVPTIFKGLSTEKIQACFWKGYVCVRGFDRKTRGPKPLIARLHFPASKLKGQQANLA
The data set can be described thus: EMSA; dissociates when chased with unlabelled S; EMSA: 10 nM (so in the source) Tris-HCl pH 8.0, 1 mM DTT, 10 ug/ml BSA, 1 mM EDTA, 25 C, 60 min; 100 nM probe; 0.2% agarose, 1x TAE. To be noted: protein: recombinant; tags: N-terminal His; label: 5'-fluorescein upper strand. (In general: A gel shift assay detects complexes by their altered migration in electrophoresis.)

Data set [2] deals with T2, NΔ294-ROS1 (Arabidopsis, UniProt Q9SJQ6 295-1393, del1-294).
T2 sequence: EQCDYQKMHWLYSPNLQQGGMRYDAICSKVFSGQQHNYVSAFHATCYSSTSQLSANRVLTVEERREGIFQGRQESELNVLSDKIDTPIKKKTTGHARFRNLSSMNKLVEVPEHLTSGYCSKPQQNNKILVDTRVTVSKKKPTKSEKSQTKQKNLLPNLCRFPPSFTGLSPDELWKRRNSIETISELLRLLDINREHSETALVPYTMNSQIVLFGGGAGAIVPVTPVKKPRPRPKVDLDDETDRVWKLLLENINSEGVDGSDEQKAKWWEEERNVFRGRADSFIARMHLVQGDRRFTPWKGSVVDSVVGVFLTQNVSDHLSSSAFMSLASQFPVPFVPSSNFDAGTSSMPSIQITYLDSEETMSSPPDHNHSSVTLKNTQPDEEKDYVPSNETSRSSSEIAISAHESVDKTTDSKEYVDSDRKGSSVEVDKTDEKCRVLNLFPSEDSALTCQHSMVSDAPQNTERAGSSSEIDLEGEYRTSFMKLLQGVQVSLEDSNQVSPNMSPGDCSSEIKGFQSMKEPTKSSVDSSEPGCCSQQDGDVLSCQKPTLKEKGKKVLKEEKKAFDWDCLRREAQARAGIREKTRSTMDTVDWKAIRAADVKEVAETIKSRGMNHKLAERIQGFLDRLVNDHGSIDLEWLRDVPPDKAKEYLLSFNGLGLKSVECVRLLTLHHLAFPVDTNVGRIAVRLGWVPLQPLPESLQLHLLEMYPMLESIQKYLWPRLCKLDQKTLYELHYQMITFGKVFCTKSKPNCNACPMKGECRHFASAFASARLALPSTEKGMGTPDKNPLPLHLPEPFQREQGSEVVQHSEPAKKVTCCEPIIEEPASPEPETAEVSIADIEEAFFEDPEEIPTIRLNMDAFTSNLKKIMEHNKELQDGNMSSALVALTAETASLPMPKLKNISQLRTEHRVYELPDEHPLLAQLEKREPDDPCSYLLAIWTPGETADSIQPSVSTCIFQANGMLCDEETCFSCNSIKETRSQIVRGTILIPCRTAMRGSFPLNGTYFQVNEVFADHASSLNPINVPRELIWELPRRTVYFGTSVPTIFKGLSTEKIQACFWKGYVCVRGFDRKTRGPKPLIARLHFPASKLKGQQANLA
In words: EMSA; dissociates when chased with unlabelled S; needs higher protein than SL1-2; EMSA: 10 nM (so in the source) Tris-HCl pH 8.0, 1 mM DTT, 10 ug/ml BSA, 1 mM EDTA, 25 C, 60 min; 100 nM probe; 0.2% agarose, 1x TAE. Conditions: protein: recombinant; tags: N-terminal His; label: 5'-fluorescein upper strand.

Data set [3] concerns the target T1, FL-ROS1. The data set can be described thus: EMSA; chase with competitor; similar to methylated S; EMSA: 10 nM (so in the source) Tris-HCl pH 8.0, 1 mM DTT, 10 ug/ml BSA, 1 mM EDTA, 25 C, 60 min; 100 nM probe; 0.2% agarose, 1x TAE. To be noted: protein: recombinant; tags: N-terminal His; label: 5'-fluorescein upper strand.
Data set [4] concerns the target T2, NΔ294-ROS1. In words: EMSA; easier to dissociate by competitor S than FL-ROS1; EMSA: 10 nM (so in the source) Tris-HCl pH 8.0, 1 mM DTT, 10 ug/ml BSA, 1 mM EDTA, 25 C, 60 min; 100 nM probe; 0.2% agarose, 1x TAE. To be noted: protein: recombinant, tags: N-terminal His, label: 5'-fluorescein upper strand, four-way junction obstacle.
Data set [5] has as its target T1, FL-ROS1. In words: EMSA; low dissociation with competitor S, slightly higher than SL1-2; EMSA: 10 nM (so in the source) Tris-HCl pH 8.0, 1 mM DTT, 10 ug/ml BSA, 1 mM EDTA, 25 C, 60 min; 100 nM probe; 0.2% agarose, 1x TAE. To be noted: protein: recombinant, tags: N-terminal His, label: 5'-fluorescein upper strand, four-way junction obstacle.
Data set [6] concerns the target T1, FL-ROS1. The data set can be described thus: EMSA; remains bound when chased with unlabelled S; affinity not higher than for S; EMSA: 10 nM (so in the source) Tris-HCl pH 8.0, 1 mM DTT, 10 ug/ml BSA, 1 mM EDTA, 25 C, 60 min; 100 nM probe; 0.2% agarose, 1x TAE. Conditions: protein: recombinant; tags: N-terminal His; label: 5'-fluorescein upper strand; four-way junction obstacles on both sides.

The target of data set [7] is T2, NΔ294-ROS1. In words: EMSA; binds at lower concentration than to S; displaced at high competitor S; EMSA: 10 nM (so in the source) Tris-HCl pH 8.0, 1 mM DTT, 10 ug/ml BSA, 1 mM EDTA, 25 C, 60 min; 100 nM probe; 0.2% agarose, 1x TAE. Conditions: protein: recombinant; tags: N-terminal His; label: 5'-fluorescein upper strand; four-way junction obstacles on both sides.

Data set [8] deals with T1, FL-ROS1. The data set can be described thus: EMSA; dissociates when chased with mismatched S; EMSA: 10 nM (so in the source) Tris-HCl pH 8.0, 1 mM DTT, 10 ug/ml BSA, 1 mM EDTA, 25 C, 60 min; 100 nM probe; 0.2% agarose, 1x TAE. Conditions: protein: recombinant; tags: N-terminal His; label: 5'-fluorescein upper strand; central T:G mispair.
Data set [9] concerns the target T1, FL-ROS1. In words: EMSA; remains bound when chased with mismatched S; affinity not higher than for S; EMSA: 10 nM (so in the source) Tris-HCl pH 8.0, 1 mM DTT, 10 ug/ml BSA, 1 mM EDTA, 25 C, 60 min; 100 nM probe; 0.2% agarose, 1x TAE. Conditions: protein: recombinant; tags: N-terminal His; label: 5'-fluorescein upper strand; four-way junction obstacles on both sides; central T:G mispair.

The target in data set [10] is T1, FL-ROS1. In words: EMSA; chase with competitor; similar to methylated SL1-2; EMSA: 10 nM (so in the source) Tris-HCl pH 8.0, 1 mM DTT, 10 ug/ml BSA, 1 mM EDTA, 25 C, 60 min; 100 nM probe; 0.2% agarose, 1x TAE. To be noted: protein: recombinant; tags: N-terminal His; label: 5'-fluorescein upper strand; four-way junction obstacles on both sides.

Residue numbers refer to the chain shown, from its start.

B1: S (5-meC:G) (dsDNA)
DNA 1: TCACGCGGGATCAATGTGTTCTTTCAGCTCCGGTCACGCTGACCAGGAATACCTCACTACC
DNA 2: GGTAGTGAGGTATTCCTGGTCAGCGTGACCGGAGCTGAAAGAACACATTGATCCCGCGTGA
modifications: one central 5-meC in CG context
As for B1, the binding result with FL-ROS1 [1] and in the data set with NΔ294-ROS1 [2] was “binds” throughout.

B2: S (homoduplex, no target) (dsDNA)
DNA 1: B1 DNA 1
DNA 2: B1 DNA 2
B2: the binding result with FL-ROS1 [3] is given as “binds”.

B3: SL2 (5-meC:G) (dsDNA)
DNA 1: B1 DNA 1
DNA 2: GGTAGTGAGGTATTCCTGGTCAGCGTGACCGGAGCTGAAAGAACACCCGTAAGGGTCCGTAAGGACATTGATCCCGCGTGA
modifications: one central 5-meC in CG context
With B3, the binding result in the data set with NΔ294-ROS1 [4] (right) and in the data set with FL-ROS1 [5] (right) was “binds” in each case.

B4: SL1-2 (5-meC:G) (dsDNA)
DNA 1: B1 DNA 1
DNA 2: GGTAGTGAGGTATTCCCCCGTAAGGGTCCGTAAGGATGGTCAGCGTGACCGGAGCTGAAAGAACACCCGTAAGGGTCCGTAAGGACATTGATCCCGCGTGA
modifications: one central 5-meC in CG context
On to B4, for which the binding result with FL-ROS1 [6] and with NΔ294-ROS1 [7] was “binds” throughout.

B5: S (T:G) (dsDNA)
DNA 1: B1 DNA 1 with C31T
DNA 2: B1 DNA 2
B5: the binding result with FL-ROS1 [8] is recorded as “binds”.

B6: SL1-2 (T:G) (dsDNA)
DNA 1: B1 DNA 1 with C31T
DNA 2: B4 DNA 2
For the molecule B6, in the data set with FL-ROS1 [9], the binding result is given as “binds”.

B7: SL1 (5-meC:G) (dsDNA)
DNA 1: B1 DNA 1
DNA 2: GGTAGTGAGGTATTCCCCCGTAAGGGTCCGTAAGGATGGTCAGCGTGACCGGAGCTGAAAGAACACATTGATCCCGCGTGA
modifications: one central 5-meC in CG context
Turning to B7, the binding result with NΔ294-ROS1 [4] (left) and with FL-ROS1 [5] (left) was “binds” each time.

B8: SL1-2 (homoduplex, no target) (dsDNA)
DNA 1: B1 DNA 1
DNA 2: B4 DNA 2
In the case of B8, in the data set with FL-ROS1 [10], the binding result is “binds”.

Values taken from PMC3526269, “Demethylation initiated by ROS1 glycosylase involves random sliding along DNA”.
